Measurements taken from the domain aggregation screens of Martell et al. (2025).

Experiment: soluble fraction after stress (log2 fold change); higher = more stays soluble; pooled small domains, quantitative proteomics
Settings: stress: 75 degC
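Further: 20 min heating vs room temperature control held 20 min.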

Row | Sequence | soluble fraction (log2)
1 | HMQTTVHLSPEEMVIMNALKQESPIDLPILRAQVEMSNKLWDTSMKNLSKLGQLKVEKIGEQVSVSLI | -0.582
2 | HMQVAPDLMQRLTSQGHVDEKLSDALVHARQITNFEGRRRQMQFIGKLMRKLSEESIEAVKDALNEQRM | -0.313
3 | HMQVDENNINKRIDKYLSENTEYSRSTIQKMIDNGNITVNSKPTKSSYKLELNDIITIDNNFKE | 0.0359
4 | HMQVEYTRGELIQDLEGGKIVYAGISPSRETPTGEVNFILDSGLTRTLYVTDVSEIEQLLISYDIDPEVKK | -0.0196
5 | HMQVFDSNEIDEVVKKVIENNPQAVADFKKGKSNALQFLAGQVMRETKGRFNPNVVQERIRLLLT | 0.671
6 | HMQVLLTRREKEILKLIAEGLTSAEIGKRLFISTTTVDTHRKHLLEKLKAGNTAILIKTAVQLDLI | -2.53
7 | HMQVPWYQRLKEKRLEYGVSQNKLATHIGISRQYMSEIETGKVTPSDSLQATLFDILEQFNPDA | -0.817
8 | HMQVRVERSRDKVVISGVNYYIHPVRKGETVYSIARAYGITTQDLVRENPSAAEGLKEGQSIRIPERLVD | -0.438
9 | HMQVSDEGPIKAILQEVLDKSPTQLADYASGKVKLRQYFFGEAMKALKGKANPQVINKLLDEMLPPVAA | -0.0324
10 | HMQVSDVTELRTILEKVITENESVATEFKEGKDAAMNFLVGQGMKATRGAADPALLKEIITGIL | -0.0525
11 | HMQVSITGYLGGEKIGLFDDAKFKALAAKQGIAIDYRKAGSPAMMDADRKGMDYLFPSSRAAVEYGNAKGV | -0.00209
12 | HMQVTDTGTIEGEIDKVLAANPDRVTEYHDGKEKILGWFVGQVMQTTKGKANPQMVNQLFLEKLK | 0.0105
13 | HMQVTPQVLRLLDVLGDKELSLRQIAEALGLSDRKNIMRNYVVPALDSGRVVRTVPNKPNSRFQKYRK | -0.739
14 | HMQYDALVLNLLQEKNLTSESLKDAQRAFAKSHNLSTLPSKSQILQAYFQLLEQGKIEKNPDFELLL | -0.394
15 | HMQYFDIETEIQKFIKSENNLSDFDKETLQSFLYQLSKGSPEENTAKKVVDILNKFLPLTTAIINMIKALT | 0.0503
16 | HMQYYITKIANYDQVSPNLLVRTAEGQYMVKTNADILDTDVTKLTEEEIRKDWGYLFENGFSELV | -0.498
17 | HMRAAEPTTDAQRDRRRRIVLTAMTMLQERGYDEIQMRDVAQQAGVALGTLYRYFPSKEQLFAHVLVE | -1.71
18 | HMRAAFEHLTIGQTVSGLVKSQARGVSLVEIEGQTVAMRLPQPVAVGDTLRLRFAGHMPQPVFLLDT | -1.59
19 | HMRADYVGGLDPAGDNFLALRTGPGSGYAMILPMGPGTFVTVLRRNGKWLLVELEDGTRGWAYGSYILG | -2.32

Row | Sequence | soluble fraction (log2)
20 | HMRAGALTTLTERERNVFDLVVTGHSNPEIARQLSIADVTVKTHVGHILSKLGVRDRVHLVIWAHRQGLAD | -2.84
21 | HMRAMWENLFFQYKEGFLPEEYYKQGIATGIRLAGPKFVEMNIPMQKEFEDEVHRLLAEHEKSVK | -0.914
22 | HMRASVTYVVQVNGKLRGKLEVAPDIDPEELKKLALEVENVKHSLQGWTVKKVIVIPGKMVSIAAGK | -1.78
23 | HMRAVEGKRLKRLLRTNLIAIERDQILQYPLRKRPLAIVTRAVRATNPDAVIVNDAGDDVFARALDVLLAS | -1.44
24 | HMRDAKSQLQEALQKSGRLPEYELVSVEGPPHAPVFTYRVRIDGAVVGEGQGASKQAAQQAAAQSALKSG | 0.0311
25 | HMRDDAIQQGREIVERELHRLDLAYTTLTDVLAKLEYEKLDDLYAAVGFGIRSPHSVAAAALQVERDKA | -0.322
26 | HMRDGHEQLQGVLSAIKFHQANFLIGVLDDGTTVKGNMLSPQVGLEYTFRGRRERHPRWGEQFAFMDYRV | -3.31
27 | HMRDIGKNIRYYREKKGYSQEQLAQLLFVTRQTVSNYETSRSRPDVETLVKLAGLLDIDVTDLIYGPR | -2.74
28 | HMRDKSITFSEFVKLLDEGQIQKVTLTGNEILGTQKSGDKFRTYAPPQYEGLGNKLVERSVEVTAKE | 0.378
29 | HMRDLVTYVVQVNGKLRGKLEVSPSTDDNSLKTMALELENVQRALEGLSVKKVIVIPGKMVSIAAG | -0.972
30 | HMRDVVVVPDLSGLTQMEALSKLDAESLNIGEINYGVSEMPEGVIFKQDPVYGTELMKGDTVDIFISGR | -0.423
31 | HMRDYKTHLQEVLQSKGEVNIWYKLIDEKGPDHNKKFVMQVGIDSKILGFGEGKSKKEAEQVAARKALDNI | -0.384
32 | HMREGIQLGDPVRVIRDPLFGKIGAVSGLPSELRAIPTESEVRVLEVRFPDGTTTVVPRANIEVIEG | 0.487
33 | HMREIEVNYAAGDSVRVIDGPLAGFIGVVSSVEPDKNKVNVTVSMFGRETPVELELDQVETLD | 0.111
34 | HMREISSDELHSLFSADQRGDLVINETTRLSIEKLYALHTPEEREAKVNELSGVLPSEAHRQLVHFLDYFD | -1.42
35 | HMREITVEELYELEGIRIVGTIPGISAWVAESGRQMVFLVGQKVKGHDLLEVGESRVVLRKGDSVVNVLL | -1.56
36 | HMREKPRETFQRIAEKVGQTLRKGPVRVQQMDLLFSESREQVMEVLRAMAESGEIRIQDDTLHWNGHT | 0.173
37 | HMRELPKRPEIRYAAGDRVFHKAFGNGLVKQVAQTAGGARVTVDFGEGKGVKTFAGDAPMIKI | 0.391
38 | HMRELSDFEKLLFTTTLERKMINLAMLLTRSNKADSKDLIQDSYLKAIENQVQFNGNNIDAWVITILKNTF | -0.352
